Measurements as given in US20240410900A1 (Hoffmann-La Roche, published 2024).

How the values were obtained:
[1] = molecular target: T1, anti-VEGF/ANG2 antibody (IgG1 subclass with mutations P329G/L234A/L235A/I253A/H310A/H435A); assay: ELISA assay C, tracer FcγRI-Dig, target 6 ng/mL
T1 construct: Format of the bispecific antibody not described; Positions are EU numbers, not positions on the UniProt entry; also called sample 1; antibody 1

[2] = molecular target: T2, anti-P-Selectin antibody (IgG4 subclass with mutations S228P/L235E); assay: ELISA assay C, tracer FcγRI-Dig, target 6 ng/mL
T2 construct: Positions are EU numbers; also called sample 4; antibody 4

[3] = molecular target: T3, anti-IGF-1R antibody (IgG1 subclass with mutations I253A/H310A/H435A); assay: ELISA assay C, tracer FcγRI-Dig, target 6 ng/mL
T3 construct: Positions are EU numbers; also called sample 3; antibody 3

[4] = molecular target: T4, anti-VEGF/ANG2 antibody (IgG1 subclass with mutations P329G/L234A/L235A); assay: ELISA assay C, tracer FcγRI-Dig, target 6 ng/mL
T4 construct: Positions are EU numbers; also called sample 2; antibody 2

[5] = molecular target: T5, anti-VEGF/ANG2 antibody (wild-type IgG1 subclass) (UniProt P01857-1 1-330 = IgG part); assay: ELISA assay C, tracer FcγRI-Dig, target 6 ng/mL
T5 construct: also called sample 5; antibody 5

[6] = molecular target: T3, anti-IGF-1R antibody (IgG1 subclass …); assay: ELISA assay B, tracer M1.7.10-Dig, target 13 ng/mL
Procedure: Biotinylated anti-PG Fc-region antibody or biotinylated anti-AAA Fc-region antibody, respectively, was bound to the wells of a streptavidin-coated multi-well plate (SA-MTP) to produce a capture plate. Excess of unbound antibody was removed by washing. Sample/standard antibodies spiked in human and cynomolgus monkey serum (10% final concentration) was added to wells of the SA-MTP multi-well plate coated with the capture plate and incubated for 1 hour at room temperature. After washing, the wells were incubated with digoxygenylated anti-human kappa antibody M1.7.10 (see e.g. WO 2011/048043, incorporated herein by reference). After washing the bound digoxygenylated anti-human kappa antibody complex was incubated with a horseradish peroxidase (HRP) labelled anti-digoxygenin antibody. After another washing step, an ABTS solution was added to the wells and incubated. The product of the color reaction was measured by Elisa reader at 405 nm wavelength (reference wavelength: 490 nm). Absorbance values of each sample or standard were determined in triplicates.

[7] = molecular target: T1, anti-VEGF/ANG2 antibody (IgG1 subclass …); assay: ELISA assay C, tracer FcγRI-Dig, target 3 ng/mL
[8] = molecular target: T2, anti-P-Selectin antibody (IgG4 subclass …); assay: ELISA assay C, tracer FcγRI-Dig, target 3 ng/mL
[9] = molecular target: T3, anti-IGF-1R antibody (IgG1 subclass …); assay: ELISA assay C, tracer FcγRI-Dig, target 3 ng/mL
[10] = molecular target: T4, anti-VEGF/ANG2 antibody (IgG1 subclass …); assay: ELISA assay C, tracer FcγRI-Dig, target 3 ng/mL
[11] = molecular target: T5, anti-VEGF/ANG2 antibody (wild-type IgG1 …); assay: ELISA assay C, tracer FcγRI-Dig, target 3 ng/mL
[12] = molecular target: T1, anti-VEGF/ANG2 antibody (IgG1 subclass …); assay: bridging ELISA, target-Bi capture and target-Dig tracer, binder 125 ng/mL, against the blank
Procedure: A dilution series of the monomeric full-length anti-PG Fc-region antibody clone 1.3.17 was prepared as standards for checking the possibility of generating a standard curve.
Biotinylated anti-VEGF/ANG2 antibody with the mutations P329G, L234A, L235A, I253A, H310A, and H435A and digoxygenylated anti-VEGF/ANG2 antibody with the mutations P329G, L234A, L235A, 1253A, H310A, and H435A were pre-incubated with the standards overnight at room temperature. After pre-incubation, the samples were transferred to a streptavidin-coated multi-well plate and incubated for 1 hour at room temperature. Excess of unbound antibody was removed by washing. After a washing step the bound digoxygenylated complexes comprising biotinylated and digoxygenylated anti-VEGF/ANG2 antibody with the mutations P329G, L234A, L235A, 1253A, H310A, and H435A as well as the monomeric, full-length anti-PG Fc-region antibody M1.3.17 (SEQ ID NO: 03 and 04) were detected with an horseradish peroxidase (HRP) labelled anti-digoxygenin-antibody. After a washing step and upon incubation with the respective substrate the HRP present in the formed complex catalyzes the conversion of ABTS into a colored product. The signal was measured by Elisa reader at 405 nm wavelength (reference wavelength: 490 nm). Absorbance values of each serum sample were determined in triplicates.

[13] = molecular target: T6, drug antibody (capture and tracer of the bridging immunoassay of FIGS. 2, 7 and 8; not named); assay: bridging immunoassay, drug antibody as capture and tracer, binder at 1000 ng/mL
T6 construct: also called the same but differently derivatized drug antibodies

[14] = molecular target: T6, drug antibody (capture and tracer of …); assay: bridging immunoassay, drug antibody as capture and tracer, binder at 2,500 ng/ml

signal [OD405 nm] [1] [OD405 nm] | signal [OD405 nm] [2] [OD405 nm] | signal [OD405 nm] [3] [OD405 nm] | signal [OD405 nm] [4] [OD405 nm] | signal [OD405 nm] [5] [OD405 nm] | signal [OD405 nm] [6] [OD405 nm] | signal [OD405 nm] [7] [OD405 nm] | signal [OD405 nm] [8] [OD405 nm] | signal [OD405 nm] [9] [OD405 nm] | signal [OD405 nm] [10] [OD405 nm] | signal [OD405 nm] [11] [OD405 nm] | signal to noise ratio [12] | signal-to-noise ratio (S/N) [13] | signal-to-noise ratio [14] | Binder
0.06 | 0.051 | 0.104 | 0.06 | 0.064 | 2.85 | 0.066 | 0.05 | 0.083 | 0.068 | 0.069 | – | – | – | anti-AAA variant Fc-region antibody M1.6.22 (antibody, V domains shown, Murine variable domains; also called M1.6.22-Bi) VH: EVQLVESGGDLVKPGGSLKLSCAASGFTFSSYGMSWVRQTPDKRLEWVATISSGGSYIYYPDSVKGRFTISRDNAKNTLYLQMSSLKSEDTAMYYCARLGMITTGYAMDYWGQGTSVTVSS VL: DVLMTQTPLSLPVSLGDQASISCRSSQTIVHSTGHTYLEWFLQKPGQSPKLLIYKVSNRFSGVPDRFSGSGSGTDFTLKISRVEAEDLGVYYCFQGSHVPYTFGGGTKLEIK
1.17 | 1.18 | 1.21 | 1.22 | 1.17 | 0.044 | 1.16 | 1.19 | 1.21 | 1.22 | 1.19 | 1.85 | – | – | anti-PG variant Fc-region antibody M1.3.17 (antibody, V domains shown, Monomeric, bivalent full-length antibody with murine variable domains; Biotinylated when used as capture antibody; also called anti-PG antibody clone 1.3.17; M1.3.17-Bi) VH: EVKLLESGGGLVQPGGSLKLSCAASGIDFRRYWMNWVRQAPGKGLEWIGEIDPDSSTINYTPSLKDKFIISRDNAKNTMYLQMRKVRSEDTALYYCARPYDYGAWFAYWGQGTLVTVSA VL: QAVVTQESALTTSPGETVTLTCRSTTGAVTTSNYANWVQEKPDHLFTGLIGGTNKRAPGVPARFSGSLIGDKAALTITGAQTEDEAIYFCALWYSDHWVFGGGTKLTVL
0.079 | 0.053 | 0.069 | 0.06 | 0.057 | 0.043 | 0.094 | 0.053 | 0.077 | 0.057 | 0.053 | – | 3.8 | > 2 | anti-PG variant Fc-region antibody M1.7.24 (monomeric, bivalent) (antibody, V domains shown, Full-length Y-shaped antibody with murine variable domains; Biotinylated when used as capture antibody; also called anti-PG antibody clone 1.7.24; M1.7.24-Bi) VH: EVKLLESGGGLVQPGGSLKLSCAASGFDFSRYWMNWVRQAPGKGLEWIGEITPDSSTINYTPSLKDKFIISRDNAKNTLYLQMIKVRSEDTALYYCVRPYDYGAWFASWGQGTLVTVSA VL: QAVVTQESALTTSPGETVTLTCRSSTGAVTTSNYANWVQEKPDHLFTGLIGGTNKRAPGVPARFSGSLIGDKAALTITGAQTEDEAIYFCALWYSNHWVFGGGTKLTVL
